This is an account of results in US20240116985A1 (published 2024).

Starred links: 1 amine or outer side, 2 acyl side, 3 side chain; linkers in the order of their positions; H or OH if unused. Positions of bridges follow the written chain, without caps; N, C: chain ends. Non-standard residues stand in square brackets, D forms with d. Primed or numbered codes have the meaning given here. PyrS2″ = (S)-3-amino-1-((pent-4-en-1-yloxy)carbonyl)pyrrolidine-3-carboxylic acid (stapling residue), C=CCCCOC(=O)N1CC[C@@](N[*:1])(C(=O)[*:2])C1; B5(16) = 2-amino-2-(pent-4-en-1-yl)hept-6-enoic acid = 2,2-bis(4-pentenyl)glycine (stitching residue), C=CCCCC(CCCC=C)(N[*:1])C(=O)[*:2]; B5(5) = 2,2-bis(4-pentenyl)glycine, 2-amino-2-(pent-4-en-1-yl)hept-6-enoic acid (stitching residue), C=CCCCC(CCCC=C)(N[*:1])C(=O)[*:2]; B5(21) = 2-amino-2-(pent-4-en-1-yl)hept-6-enoic acid, bis(4-pentenyl)glycine (stitching residue), C=CCCCC(CCCC=C)(N[*:1])C(=O)[*:2]; TfeGA = (S)-2-amino-3-((carboxymethyl)(2,2,2-trifluoroethyl)amino)propanoic acid, O=C([C@H](CN(CC(=O)[*:3])CC(F)(F)F)N[*:1])[*:2]; Bta = N[C@@H](Cc1csc2ccccc12)C(=O)O; αAllylPro = C=CC[C@@]1(C(=O)O)CCCN1; tBuAla = CC(C)(C)C[C@H](N)C(=O)O; 3Thi = N[C@@H](Cc1ccsc1)C(=O)O; Cit = NC(=O)NCCC[C@H](N)C(=O)O; S8 = C=CCCCCCC[C@](C)(N)C(=O)O

Common to all, as to assay: cell-based or functional assay
The target in experiment [1] is T1, B-cat-Halo (beta-catenin HaloTag NanoBRET construct expressed in HEK293 cells) (UniProt P35222 1-781).
T1 sequence (looked up): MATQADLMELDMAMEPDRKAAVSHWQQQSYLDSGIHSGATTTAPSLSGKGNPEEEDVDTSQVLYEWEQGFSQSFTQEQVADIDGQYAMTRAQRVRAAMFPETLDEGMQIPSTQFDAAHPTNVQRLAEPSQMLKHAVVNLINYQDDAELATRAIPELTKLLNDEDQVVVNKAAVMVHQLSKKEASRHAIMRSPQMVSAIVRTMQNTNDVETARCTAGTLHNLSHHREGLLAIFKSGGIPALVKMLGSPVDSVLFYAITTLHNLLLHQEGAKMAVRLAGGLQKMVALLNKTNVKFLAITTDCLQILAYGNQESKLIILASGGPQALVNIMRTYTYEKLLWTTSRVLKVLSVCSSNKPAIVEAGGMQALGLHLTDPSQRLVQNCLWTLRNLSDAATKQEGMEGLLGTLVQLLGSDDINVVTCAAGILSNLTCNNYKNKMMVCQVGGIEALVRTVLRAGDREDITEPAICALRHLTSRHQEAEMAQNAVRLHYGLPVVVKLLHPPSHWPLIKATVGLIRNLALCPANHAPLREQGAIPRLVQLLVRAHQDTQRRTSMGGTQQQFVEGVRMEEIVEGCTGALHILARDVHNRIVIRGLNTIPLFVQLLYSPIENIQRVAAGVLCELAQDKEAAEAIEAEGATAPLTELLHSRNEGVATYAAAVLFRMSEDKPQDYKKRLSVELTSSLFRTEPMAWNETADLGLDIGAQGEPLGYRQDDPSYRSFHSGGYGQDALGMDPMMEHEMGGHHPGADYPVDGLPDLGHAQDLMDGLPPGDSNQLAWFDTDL

Experiment [2] concerns the target T2, B-cat-Halo (UniProt P35222 1-781).
T2 sequence (looked up): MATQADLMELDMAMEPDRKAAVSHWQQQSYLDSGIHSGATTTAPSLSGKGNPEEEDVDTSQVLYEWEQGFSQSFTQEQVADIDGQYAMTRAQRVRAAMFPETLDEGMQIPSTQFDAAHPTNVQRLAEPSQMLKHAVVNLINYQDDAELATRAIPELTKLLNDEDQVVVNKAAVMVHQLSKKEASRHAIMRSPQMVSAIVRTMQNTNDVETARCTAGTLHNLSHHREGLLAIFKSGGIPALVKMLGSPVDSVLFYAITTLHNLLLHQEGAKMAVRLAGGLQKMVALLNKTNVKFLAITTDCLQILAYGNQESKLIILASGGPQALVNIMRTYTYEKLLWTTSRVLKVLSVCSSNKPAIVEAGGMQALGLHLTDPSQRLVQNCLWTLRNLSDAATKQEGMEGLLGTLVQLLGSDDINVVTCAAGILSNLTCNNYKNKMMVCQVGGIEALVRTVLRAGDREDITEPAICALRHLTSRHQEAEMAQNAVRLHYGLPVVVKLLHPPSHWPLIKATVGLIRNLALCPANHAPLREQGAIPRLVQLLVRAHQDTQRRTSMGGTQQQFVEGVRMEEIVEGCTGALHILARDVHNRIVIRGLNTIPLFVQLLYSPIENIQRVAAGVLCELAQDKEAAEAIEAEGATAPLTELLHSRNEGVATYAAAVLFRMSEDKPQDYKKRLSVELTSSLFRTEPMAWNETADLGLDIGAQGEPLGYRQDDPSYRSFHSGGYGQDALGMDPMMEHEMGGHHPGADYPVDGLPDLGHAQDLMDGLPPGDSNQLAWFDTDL

In experiment [3] the target is B-cat-Halo (UniProt P35222 1-781). This is another data set of the same source.
The target of experiment [4] is T3, B-cat-Halo (beta-catenin HaloTag NanoBRET construct expressed in HEK293 cells) (UniProt P35222 1-781).
T3 sequence (looked up): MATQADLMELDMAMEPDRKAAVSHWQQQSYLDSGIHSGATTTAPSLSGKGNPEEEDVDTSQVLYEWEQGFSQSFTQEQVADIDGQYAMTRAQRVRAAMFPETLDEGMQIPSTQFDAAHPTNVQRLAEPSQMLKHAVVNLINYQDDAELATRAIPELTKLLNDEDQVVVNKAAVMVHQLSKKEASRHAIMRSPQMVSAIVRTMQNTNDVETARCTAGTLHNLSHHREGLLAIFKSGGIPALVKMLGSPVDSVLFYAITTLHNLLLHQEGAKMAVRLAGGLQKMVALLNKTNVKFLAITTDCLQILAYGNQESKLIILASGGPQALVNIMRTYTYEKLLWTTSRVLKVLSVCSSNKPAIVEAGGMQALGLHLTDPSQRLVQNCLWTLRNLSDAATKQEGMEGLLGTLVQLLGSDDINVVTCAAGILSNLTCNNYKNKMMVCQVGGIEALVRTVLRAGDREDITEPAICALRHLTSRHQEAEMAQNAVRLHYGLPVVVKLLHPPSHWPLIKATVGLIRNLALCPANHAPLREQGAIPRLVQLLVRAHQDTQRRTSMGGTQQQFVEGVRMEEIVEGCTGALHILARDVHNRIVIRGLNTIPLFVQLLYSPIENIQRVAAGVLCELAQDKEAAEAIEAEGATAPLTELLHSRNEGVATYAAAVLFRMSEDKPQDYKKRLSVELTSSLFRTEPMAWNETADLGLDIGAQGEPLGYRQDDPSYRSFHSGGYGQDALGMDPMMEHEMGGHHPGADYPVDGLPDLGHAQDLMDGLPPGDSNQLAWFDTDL
This is another data set of the same source.

B1: I-703 (peptide)
peptide: Ac-[αAllylPro]D[tBuAla][B5(5)]D[TfeGA]AAFN[S8]F[Bta]Q-NH2
modifications: staple 1-4, 4-11
B1: the “NanoBRET Abs IC50” value in experiment [1] was determined as 11.9 µM.

B2: I-629 (peptide)
peptide: Ac-[αAllylPro]DL[B5(16)]DEAAF[Cit][S8]F[Bta]-NH2
modifications: staple 1-4, 4-11; not fully specified; printed as Ac-PL3-Asp-Leu-B5-Asp-Glu-Ala-Ala-Phe-Cit-S8-Phe-BztA-NH2
In the case of B2, the “NanoBRET Abs IC50” value with B-cat-Halo [2] was found to be 30 µM.

B3: I-679 (peptide)
peptide: Ac-[αAllylPro]D[tBuAla][B5(5)]DDAAFN[S8][3Thi][Bta]Q-NH2
modifications: staple 1-4, 4-11
In the case of B3, in the experiment with B-cat-Halo [3], the “NanoBRET % inh @ 10 uM” value came to 44.8%.

B4: I-462 (peptide)
peptide: Ac-[αAllylPro]DA[B5(21)]DEAAFN[PyrS2″]F[Bta]Q-NH2
modifications: staple 1-4, 4-11
As to B4, the “NanoBRET Abs IC50” value in experiment [4] was over 20 µM.
